These results are taken from patent US20090324538A1.

The target of assay [1] is heterotrimeric IL-15R (αβγc chains) on CTLL-2 cells (UniProt Q60819). Kind of assay: cell-based or functional assay.
For assay [2], the target named is IL-15Rβγc receptors on 32Dβ cells. In words: cell-based or functional assay.

Sequence of UniProt Q60819 (Q60819 33-263, chain 1 of 3): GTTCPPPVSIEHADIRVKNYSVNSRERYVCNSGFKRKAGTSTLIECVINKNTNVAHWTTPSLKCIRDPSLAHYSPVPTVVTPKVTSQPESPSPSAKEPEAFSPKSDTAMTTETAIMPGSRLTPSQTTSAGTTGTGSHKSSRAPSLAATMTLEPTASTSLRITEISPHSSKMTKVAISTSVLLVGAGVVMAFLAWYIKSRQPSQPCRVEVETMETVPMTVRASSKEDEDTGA
Sequence of UniProt Q60819 (P16297 27-539, chain 2 of 3, further chain): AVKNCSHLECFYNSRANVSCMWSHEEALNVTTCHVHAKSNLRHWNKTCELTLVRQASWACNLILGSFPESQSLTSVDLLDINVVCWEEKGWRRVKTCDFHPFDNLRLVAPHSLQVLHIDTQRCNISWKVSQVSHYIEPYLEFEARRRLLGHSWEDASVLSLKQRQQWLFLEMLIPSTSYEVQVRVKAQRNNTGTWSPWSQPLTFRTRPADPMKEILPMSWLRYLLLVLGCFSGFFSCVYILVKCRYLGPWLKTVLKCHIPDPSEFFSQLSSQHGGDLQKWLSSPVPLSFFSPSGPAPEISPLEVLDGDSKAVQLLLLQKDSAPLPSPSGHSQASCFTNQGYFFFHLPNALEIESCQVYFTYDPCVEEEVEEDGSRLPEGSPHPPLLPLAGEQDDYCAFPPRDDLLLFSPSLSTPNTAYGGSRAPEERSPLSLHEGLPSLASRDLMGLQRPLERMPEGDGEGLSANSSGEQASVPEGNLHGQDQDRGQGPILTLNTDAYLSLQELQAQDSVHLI
Sequence of UniProt Q60819 (P34902 23-369, chain 3 of 3, further chain): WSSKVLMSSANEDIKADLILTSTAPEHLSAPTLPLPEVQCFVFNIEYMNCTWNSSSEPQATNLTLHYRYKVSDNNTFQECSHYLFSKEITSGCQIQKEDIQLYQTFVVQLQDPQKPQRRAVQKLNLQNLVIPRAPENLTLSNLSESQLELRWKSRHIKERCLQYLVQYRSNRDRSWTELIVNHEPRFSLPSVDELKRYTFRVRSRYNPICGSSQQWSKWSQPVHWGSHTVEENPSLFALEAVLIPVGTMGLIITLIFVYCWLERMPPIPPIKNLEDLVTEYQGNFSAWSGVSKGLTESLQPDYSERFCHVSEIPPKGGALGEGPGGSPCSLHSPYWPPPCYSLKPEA

For “c264scTCR/huIL15+c264scTCR/huIL15RαΔE3 fusion protein complex (from UniProt Q13261 31-205)”, the inhibition of c264scTCR/huIL15 stimulatory activity on CTLL-2 proliferation after complex formation in assay [1] worked out at 4 fold.

“c264scTCR/huIL15N72D fusion protein (from UniProt P01857 99-113)” displayed a proliferation of 32Dβ cells (WST-1), lowest concentration with biological activity in assay [2] of 80 pM.
